One molecule from article PMC6719441, “CDK2 regulates the NRF1/Ehmt1 axis during meiotic prophase I” can be followed below.

In the data set the target is T1, NRF1 (GST-NRF1, unphosphorylated) (Homo sapiens, UniProt Q16656 1-503).
T1 sequence: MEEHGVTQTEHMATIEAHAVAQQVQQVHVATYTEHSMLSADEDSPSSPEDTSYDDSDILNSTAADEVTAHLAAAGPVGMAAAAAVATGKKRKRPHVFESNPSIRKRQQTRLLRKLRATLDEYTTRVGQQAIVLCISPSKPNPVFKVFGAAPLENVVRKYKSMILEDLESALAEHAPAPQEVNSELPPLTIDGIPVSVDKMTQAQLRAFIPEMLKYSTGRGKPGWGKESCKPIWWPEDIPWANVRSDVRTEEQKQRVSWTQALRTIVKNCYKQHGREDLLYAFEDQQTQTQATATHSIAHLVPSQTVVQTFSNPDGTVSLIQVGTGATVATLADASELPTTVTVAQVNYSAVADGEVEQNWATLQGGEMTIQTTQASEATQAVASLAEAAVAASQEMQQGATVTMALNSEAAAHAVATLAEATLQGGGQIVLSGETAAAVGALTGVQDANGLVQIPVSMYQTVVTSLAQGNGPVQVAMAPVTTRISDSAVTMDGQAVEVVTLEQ
Put plainly: EMSA; 1-3 ug protein, poly[d(I-C)]; concentration-dependent; 5 mM Hepes pH 8.0, 20 nM DTT (so in the source), 30 mM NaCl, 10 ng DIG probe, 1 ug poly[d(I-C)], 0.5-2 ug GST-NRF1 (Methods; legend 1-3 ug), 5 min RT; 6% native TBE-PAGE, 0.5x TBE pH 8.3, 4 C. Particulars: protein: recombinant; tags: N-terminal GST (pGEX6P1); chain copies: 2; label: DIG (DIG 3'-end labeling kit named); blunt.

B1: Ehmt1 promoter probe (PKO 5019/PKO 5020) (dsDNA)
DNA 1: GCCACCTGGCCTCGCCTCCAGACGCAGGCGCCGCACGGGTGGGTC
DNA 2: GACCCACCCGTGCGGCGCCTGCGTCTGGAGGCGAGGCCAGGTGGC
Turning to B1, the binding result was “binds”.
